Common to all, as to details: protein: recombinant; tags: His tag (Ni-NTA, pET28a); blunt
For one data set, the target named is PARP1 ΔZn1 (Homo sapiens, UniProt P09874 1-1014, del2-96). Description: stopped-flow fluorescence anisotropy; K1, first DNA; kinetically derived; 50 mM Tris-HCl pH 7.5, 50 mM NaCl, 1 mM MgCl2, 0.1 mM EDTA, 0.01% IGEPAL; 20 °C (stated for association).
A further data set has as its target PARP1 wild-type (Homo sapiens, UniProt P09874 1-1014). The data set is described as above.
The target in a further data set is PARP1 W589A (Homo sapiens, UniProt P09874 1-1014, W589A). Briefly: stopped-flow fluorescence anisotropy; K1; kinetically derived, Scheme 2 (no ternary complex); 50 mM Tris-HCl pH 7.5, 50 mM NaCl, 1 mM MgCl2, 0.1 mM EDTA, 0.01% IGEPAL; 20 °C (stated for association).
Sequence of PARP1 W589A (P09874 whole entry W589A): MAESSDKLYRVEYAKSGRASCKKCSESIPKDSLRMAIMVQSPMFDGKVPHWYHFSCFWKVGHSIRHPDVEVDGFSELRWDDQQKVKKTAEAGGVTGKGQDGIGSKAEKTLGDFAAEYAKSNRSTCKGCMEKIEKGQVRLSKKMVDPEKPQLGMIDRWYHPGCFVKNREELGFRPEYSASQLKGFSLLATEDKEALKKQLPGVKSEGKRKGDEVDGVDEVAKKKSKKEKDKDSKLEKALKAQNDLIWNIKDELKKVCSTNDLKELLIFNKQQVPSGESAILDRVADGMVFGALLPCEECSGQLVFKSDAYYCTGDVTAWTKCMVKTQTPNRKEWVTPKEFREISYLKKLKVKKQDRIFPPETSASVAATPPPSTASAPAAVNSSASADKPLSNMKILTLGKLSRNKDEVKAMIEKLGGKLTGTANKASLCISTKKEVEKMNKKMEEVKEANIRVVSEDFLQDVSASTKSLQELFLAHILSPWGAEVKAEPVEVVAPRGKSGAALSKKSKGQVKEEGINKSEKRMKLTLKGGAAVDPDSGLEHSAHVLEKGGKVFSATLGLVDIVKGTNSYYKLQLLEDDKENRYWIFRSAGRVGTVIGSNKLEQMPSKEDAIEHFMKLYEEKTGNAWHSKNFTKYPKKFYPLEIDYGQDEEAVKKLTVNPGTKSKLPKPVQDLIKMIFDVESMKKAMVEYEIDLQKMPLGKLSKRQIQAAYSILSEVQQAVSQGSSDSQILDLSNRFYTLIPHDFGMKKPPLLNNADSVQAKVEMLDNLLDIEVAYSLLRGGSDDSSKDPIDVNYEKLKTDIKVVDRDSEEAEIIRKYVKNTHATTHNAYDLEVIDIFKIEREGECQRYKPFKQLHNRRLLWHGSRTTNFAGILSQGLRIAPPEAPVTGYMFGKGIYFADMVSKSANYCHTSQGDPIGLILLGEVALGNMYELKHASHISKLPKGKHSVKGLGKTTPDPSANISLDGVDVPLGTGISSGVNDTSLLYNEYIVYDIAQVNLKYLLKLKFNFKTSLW

Sequence of PARP1 ΔZn1 (P09874 other isoform, or with tags, fused parts or gaps del2-96 | mutant): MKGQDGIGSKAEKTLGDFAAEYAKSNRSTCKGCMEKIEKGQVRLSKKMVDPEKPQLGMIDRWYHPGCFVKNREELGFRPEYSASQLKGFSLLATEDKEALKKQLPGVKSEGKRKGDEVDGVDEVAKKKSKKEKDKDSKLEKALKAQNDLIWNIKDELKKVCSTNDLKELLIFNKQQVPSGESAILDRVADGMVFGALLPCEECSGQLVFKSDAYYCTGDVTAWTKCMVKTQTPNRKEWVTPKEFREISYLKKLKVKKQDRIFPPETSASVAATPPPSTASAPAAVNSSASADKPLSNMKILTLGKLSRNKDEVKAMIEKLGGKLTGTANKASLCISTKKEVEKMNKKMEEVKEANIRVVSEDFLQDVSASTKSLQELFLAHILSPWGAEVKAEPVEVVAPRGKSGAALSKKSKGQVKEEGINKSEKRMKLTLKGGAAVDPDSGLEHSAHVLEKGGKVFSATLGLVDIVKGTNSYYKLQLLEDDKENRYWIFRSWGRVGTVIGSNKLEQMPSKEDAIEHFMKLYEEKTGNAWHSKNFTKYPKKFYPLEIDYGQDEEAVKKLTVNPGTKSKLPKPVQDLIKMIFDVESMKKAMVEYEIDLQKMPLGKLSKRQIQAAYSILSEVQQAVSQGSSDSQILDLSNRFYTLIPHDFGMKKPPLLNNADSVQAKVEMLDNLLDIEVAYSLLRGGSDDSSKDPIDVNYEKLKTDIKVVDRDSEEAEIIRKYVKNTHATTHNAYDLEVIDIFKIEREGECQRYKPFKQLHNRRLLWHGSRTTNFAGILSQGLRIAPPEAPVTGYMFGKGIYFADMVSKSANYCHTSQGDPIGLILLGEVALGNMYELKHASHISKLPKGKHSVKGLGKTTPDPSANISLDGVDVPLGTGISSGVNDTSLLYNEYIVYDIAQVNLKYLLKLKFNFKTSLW
Sequence of PARP1 wild-type (P09874 whole entry): as the sequence (P09874 whole entry W589A) above, with A589W counted along it

B1: p18mer* (dsDNA)
DNA 1: GGGTTGCGGCCGCTTGGG
DNA 2: CCCAAGCGGCCGCAACCC
modifications: 5'-phosphate
Turning to B1, the figures for the Kd with PARP1 ΔZn1, with PARP1 wild-type and with PARP1 W589A were less than 2.7 nM, less than 3.2 nM and 4.9 ± 1.1 nM, respectively.

Source of the values: publication doi:10.1101/317651, “Poly(ADP-ribose) polymerase 1 Searches DNA via a ‘Monkey Bar’ Mechanism”.
